In patent publication US20190315845A1 (ANNEXON, published 2019):
Substitutions are numbered along the chain they refer to. In names and notes the source's numbering stands. Read-outs that look alike come from different tables or passages of the source.

What was measured:
human C1q [1] = molecular target: T1, human C1q (human, UniProt P02745 23-245; P02746 28-253; P02747 29-245); experiment: competition ELISA on plate-bound human C1q against biotinylated mouse M1 antibody (0.02 µg/ml); bound biotin-M1 read as OD450
T1 construct: Purified human C1q protein (plate-coated in ELISA, ligand or analyte in SPR, in human serum in CH50); also called hC1q; complement factor C1q
T1 sequence (P02745 23-245 limits assumed, chain 1 of 3): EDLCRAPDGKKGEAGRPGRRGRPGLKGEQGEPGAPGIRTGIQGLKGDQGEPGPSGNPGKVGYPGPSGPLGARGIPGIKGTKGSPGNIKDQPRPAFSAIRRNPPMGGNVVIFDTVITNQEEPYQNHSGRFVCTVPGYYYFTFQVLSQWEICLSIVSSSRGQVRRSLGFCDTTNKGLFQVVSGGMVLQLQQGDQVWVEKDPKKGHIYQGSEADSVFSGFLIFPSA
T1 sequence (P02746 28-253 limits assumed, chain 2 of 3): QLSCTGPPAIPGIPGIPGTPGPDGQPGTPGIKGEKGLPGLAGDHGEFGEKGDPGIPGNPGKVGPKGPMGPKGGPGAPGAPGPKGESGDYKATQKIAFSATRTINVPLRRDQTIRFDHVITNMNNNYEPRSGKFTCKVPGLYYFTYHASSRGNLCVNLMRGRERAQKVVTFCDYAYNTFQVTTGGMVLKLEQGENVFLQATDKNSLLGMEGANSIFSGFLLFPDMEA
T1 sequence (P02747 29-245 limits assumed, chain 3 of 3): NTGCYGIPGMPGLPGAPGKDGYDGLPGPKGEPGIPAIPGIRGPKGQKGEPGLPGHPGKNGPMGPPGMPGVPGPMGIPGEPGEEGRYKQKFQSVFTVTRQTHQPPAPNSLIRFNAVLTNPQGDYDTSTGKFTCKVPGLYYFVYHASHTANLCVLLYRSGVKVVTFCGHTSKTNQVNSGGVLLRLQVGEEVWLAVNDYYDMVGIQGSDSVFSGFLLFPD
Source text: (§1) FIG. 4A, FIG. 4B, FIG. 4C, and FIG. 4D depicts competition ELISA assays for human C1q. A dilution series of purified humanized anti-C1q antibodies were competed against a fixed concentration of biotinylated monoclonal antibody M1 for binding to human C1q. Bound biotinylated M1 antibody was detected using streptavidin-peroxidase conjugate and TMB substrate. FIG. 4A depicts the results with the humanized antibodies VH1/Vκ1, VH1/Vκ2, and VH1/Vκ3. FIG. 4B depicts the results with the humanized antibodies VH1/Vκ4, VH2/Vκ1, VH2/Vκ2, VH2/Vκ3, and VH2/Vκ4. FIG. 4C depicts the results with the humanized antibodies VH3/Vκ1, VH3/Vκ2, VH3/Vκ3, and VH3/Vκ4. FIG. 4D depicts the results with the humanized antibodies VH4/Vκ1, VH4/Vκ2, […], and VH4/Vκ4.
(§2) The binding of humanized M1 variants to human C1q was analyzed by competition ELISA. A three-fold dilution series of test antibody (5 μg/ml to 0.002 μg/ml) was premixed with a constant concentration of biotinylated mouse M1 antibody (0.02 μg/ml, final concentration) before incubating for 1 hour at 37° C. with shaking on plates pre-coated with human C1q at 1.0 μg/ml. The binding of mouse M1 antibody was detected with streptavidin-peroxidase conjugate (Sigma-Aldrich cat. no. 55512) and TMB (3,3′,5,5′-tetramethylbenzidine) substrate (Thermo Scientific cat. no. 34029). The reaction was stopped with 1M HCl, absorbance read at 450 nm on a Dynex Technologies MRX TC II plate reader and the binding curves plotted.

human C1q [2] = molecular target: T1, human C1q; experiment: competition ELISA, plate-coated human C1q; competitor biotinylated mouse M1 (0.02 µg/ml); IC50 normalised to chimeric M1
Method: as §2
The binding curves were used to calculate IC₅₀ values (concentration of test antibody that inhibits labelled competitor binding by 50%) for each antibody normalized to the IC₅₀ of chimeric M1 and antibody yields from NS0 transfectants were also compared (Table 1).

human C1q [3] = molecular target: T1, human C1q; experiment: competition ELISA on plate-bound human C1q against biotinylated mouse M1 antibody (0.02 µg/ml); bound biotin-M1 read as OD450; remark: listed apart in the source
Source text: as §1, §2

human C1q [4] = molecular target: T1, human C1q; experiment: as above; remark: listed apart in the source
Source text: as §1, §2

human C1q [5] = molecular target: T1, human C1q; experiment: SPR Biacore T200, heterogeneous ligand model, KD1; hC1q immobilised (ligand), IgG analyte
mouse C1q [6] = molecular target: T2, mouse C1q (mouse, UniProt P98086 23-245; P14106 26-253; Q02105 30-246); experiment: competition ELISA on plate-bound mouse C1q against biotinylated chimeric M1 antibody (0.03 µg/ml); bound biotin-chimeric M1 read as OD450
T2 construct: Purified mouse C1q protein; also called mC1q
T2 sequence (P98086 23-245 limits assumed, chain 1 of 3): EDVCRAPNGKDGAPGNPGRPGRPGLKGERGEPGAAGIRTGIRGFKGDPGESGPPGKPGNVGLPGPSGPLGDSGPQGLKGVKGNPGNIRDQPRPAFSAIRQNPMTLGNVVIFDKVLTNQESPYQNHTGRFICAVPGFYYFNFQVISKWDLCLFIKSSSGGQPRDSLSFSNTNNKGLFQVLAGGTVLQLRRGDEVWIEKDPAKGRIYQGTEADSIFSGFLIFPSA
T2 sequence (P14106 26-253 limits assumed, chain 2 of 3): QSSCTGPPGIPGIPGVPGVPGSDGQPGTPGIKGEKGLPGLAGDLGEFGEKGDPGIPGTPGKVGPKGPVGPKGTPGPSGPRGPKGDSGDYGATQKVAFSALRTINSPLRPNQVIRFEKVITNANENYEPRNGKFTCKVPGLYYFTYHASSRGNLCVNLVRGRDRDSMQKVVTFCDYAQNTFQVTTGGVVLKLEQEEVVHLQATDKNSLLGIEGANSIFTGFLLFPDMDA
T2 sequence (Q02105 30-246 limits assumed, chain 3 of 3): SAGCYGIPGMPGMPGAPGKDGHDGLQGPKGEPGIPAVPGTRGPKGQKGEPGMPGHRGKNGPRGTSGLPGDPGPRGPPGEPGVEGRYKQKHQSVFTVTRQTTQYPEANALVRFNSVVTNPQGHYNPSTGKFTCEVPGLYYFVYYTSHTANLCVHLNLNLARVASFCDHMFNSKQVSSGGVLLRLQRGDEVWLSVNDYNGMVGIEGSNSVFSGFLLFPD
Method: (§3) The binding of humanized M1 variants to mouse C1q was analyzed by competition ELISA on four selected antibodies, VH1/Vκ1, VH3/Vκ1, VH3/Vκ4 and VH4/Vκ3. An irrelevant IgG4 (S241P L248E) antibody was also included as a binding control. A three-fold dilution series of test antibody (100 μg/ml to 0.046 μg/ml) was premixed with a constant concentration of biotinylated chimeric M1 antibody (0.03 μg/ml, final concentration) before incubating for 1 hour at 37° C. with shaking on plates pre-coated with mouse C1q at 5.0 μg/ml. The binding of chimeric M1 antibody was detected with streptavidin-peroxidase conjugate (Sigma-Aldrich cat. no. S5512) and TMB substrate (Thermo Scientific cat. no. 34029). The reaction was stopped with 1M HCl, absorbance read at 450 nm on a Dynex Technologies MRX TC II plate reader and the binding curves plotted.
(§4) The binding curves were used to calculate IC₅₀ values for each antibody normalized to the IC₅₀ of chimeric M1 (Table 2).

human C1q [7] = molecular target: T1, human C1q; experiment: SPR Biacore T200, heterogeneous ligand model, kd2; hC1q immobilised (ligand), IgG analyte
human C1q [8] = molecular target: T1, human C1q; experiment: SPR Biacore T200, 1:1 model, single cycle kinetics; hC1q immobilised (ligand), IgG analyte
human C1q [9] = molecular target: T1, human C1q; experiment: SPR Biacore T200, heterogeneous ligand model, kd1; hC1q immobilised (ligand), IgG analyte
human C1q [10] = molecular target: T1, human C1q; experiment: SPR Biacore T200, 1:1 model; IgG immobilised (ligand), hC1q analyte; mean of 2 analyses
human C1q [11] = molecular target: T1, human C1q; experiment: SPR Biacore T200, 1:1 model; IgG immobilised (ligand), hC1q analyte; analysis 1
human C1q [12] = molecular target: T1, human C1q; experiment: SPR Biacore T200, heterogeneous ligand model, KD2; hC1q immobilised (ligand), IgG analyte
human C1q [13] = molecular target: T1, human C1q; experiment: SPR Biacore T200, heterogeneous ligand model, ka2; hC1q immobilised (ligand), IgG analyte
rat C1q = rat C1q (rat, UniProt P31720 23-245; P31721 26-253; P31722 29-245); experiment: cell-based or functional assay
rat C1q, sequence (P31720 23-245 limits assumed, chain 1 of 3): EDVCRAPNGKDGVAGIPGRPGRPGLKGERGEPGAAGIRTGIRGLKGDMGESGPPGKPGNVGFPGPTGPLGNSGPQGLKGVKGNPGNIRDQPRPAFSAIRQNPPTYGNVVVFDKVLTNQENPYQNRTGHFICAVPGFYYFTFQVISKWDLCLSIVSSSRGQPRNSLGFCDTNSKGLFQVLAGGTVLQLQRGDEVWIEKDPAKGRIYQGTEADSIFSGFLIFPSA
rat C1q, sequence (P31721 26-253 limits assumed, chain 2 of 3): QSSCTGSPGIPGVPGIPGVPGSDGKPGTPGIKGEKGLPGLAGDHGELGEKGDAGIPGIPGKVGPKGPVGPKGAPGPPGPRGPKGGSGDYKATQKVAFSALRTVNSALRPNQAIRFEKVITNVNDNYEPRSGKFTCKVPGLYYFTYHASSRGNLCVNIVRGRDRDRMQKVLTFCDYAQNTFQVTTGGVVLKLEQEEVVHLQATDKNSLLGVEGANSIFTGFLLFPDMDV
rat C1q, sequence (P31722 29-245 limits assumed, chain 3 of 3): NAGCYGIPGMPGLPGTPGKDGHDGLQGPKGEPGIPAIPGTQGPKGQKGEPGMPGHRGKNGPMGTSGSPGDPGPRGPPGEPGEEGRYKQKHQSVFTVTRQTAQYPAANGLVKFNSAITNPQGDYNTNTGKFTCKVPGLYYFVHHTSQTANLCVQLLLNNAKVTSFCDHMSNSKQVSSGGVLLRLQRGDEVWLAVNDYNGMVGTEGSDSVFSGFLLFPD

human C1q [14] = molecular target: T1, human C1q; experiment: cell-based or functional assay
human C1q [15] = molecular target: T1, human C1q; experiment: SPR Biacore T200, 1:1 model; IgG immobilised (ligand), hC1q analyte; analysis 2
human C1q [16] = molecular target: T1, human C1q; experiment: SPR Biacore T200, heterogeneous ligand model, ka1; hC1q immobilised (ligand), IgG analyte
mouse C1q [17] = molecular target: T2, mouse C1q; experiment: competition ELISA, plate-coated mouse C1q; competitor biotinylated chimeric M1 (0.03 µg/ml); IC50 normalised to chimeric M1
Method: as §3, §4

human C1q [18] = molecular target: T1, human C1q; experiment: competition ELISA on plate-bound human C1q against biotinylated mouse M1 antibody (0.02 µg/ml); bound biotin-M1 read as OD450; remark: listed apart in the source
Source text: as §1, §2

B1: humanized anti-C1q antibody VH2/Vκ2 (antibody, human IgG4)
heavy: not shown
light: DVQITQSPSSLSASLGERATINCRASKSINKYLAWYQQKPGKANKLLIYSGSTLQSGIPARFSGSGSGTDFTLTISSLEPEDFAMYYCQQHNEYPLTFGQGTKLEIK
notes: Full-length human IgG4 (S241P L248E) / human kappa, expressed in NS0, Protein A purified; not shown: human kappa light chain constant region
- IC50 (read off the curve) (human C1q [1]): ~0.3 µg/mL
- Relative IC50 (human C1q [2]): 1.12 ratio to chimeric M1

B2: humanized anti-C1q antibody VH1/Vκ2 (antibody, human IgG4)
heavy: not shown
light: B1 light
notes: as for B1
- IC50 (read off the curve) (human C1q [3]): ~0.3 µg/mL
- Relative IC50 (human C1q [2]): 0.84 ratio to chimeric M1

B3: humanized anti-C1q antibody VH1/Vκ3 (antibody, human IgG4)
heavy: not shown
light: B1 light with N44P
notes: as for B1
- IC50 (read off the curve) (human C1q [3]): ~0.3 µg/mL
- Relative IC50 (human C1q [2]): 0.91 ratio to chimeric M1

B4: humanized anti-C1q antibody VH1/Vκ4 (antibody, human IgG4)
heavy: not shown
light: B1 light with V2I, I4L, N44P
notes: as for B1
- IC50 (read off the curve) (human C1q [1]): ~0.2 µg/mL
- Relative IC50 (human C1q [2]): 0.8 ratio to chimeric M1

B5: humanized anti-C1q antibody VH2/Vκ1 (antibody, human IgG4)
heavy: not shown
light: B1 light with S10Y, S12A, A43T
notes: as for B1
- IC50 (read off the curve) (human C1q [1]): ~0.3 µg/mL
- Relative IC50 (human C1q [2]): 1.15 ratio to chimeric M1

B6: humanized anti-C1q antibody VH2/Vκ3 (antibody, human IgG4)
heavy: not shown
light: B1 light with N44P
notes: as for B1
- IC50 (read off the curve) (human C1q [1]): ~0.2 µg/mL
- Relative IC50 (human C1q [2]): 0.75 ratio to chimeric M1

B7: humanized anti-C1q antibody VH2/Vκ4 (antibody, human IgG4)
heavy: not shown
light: B1 light with V2I, I4L, N44P
notes: as for B1
- IC50 (read off the curve) (human C1q [1]): ~0.2 µg/mL
- Relative IC50 (human C1q [2]): 0.72 ratio to chimeric M1

B8: humanized anti-C1q antibody VH3/Vκ1 (antibody, human IgG4)
heavy: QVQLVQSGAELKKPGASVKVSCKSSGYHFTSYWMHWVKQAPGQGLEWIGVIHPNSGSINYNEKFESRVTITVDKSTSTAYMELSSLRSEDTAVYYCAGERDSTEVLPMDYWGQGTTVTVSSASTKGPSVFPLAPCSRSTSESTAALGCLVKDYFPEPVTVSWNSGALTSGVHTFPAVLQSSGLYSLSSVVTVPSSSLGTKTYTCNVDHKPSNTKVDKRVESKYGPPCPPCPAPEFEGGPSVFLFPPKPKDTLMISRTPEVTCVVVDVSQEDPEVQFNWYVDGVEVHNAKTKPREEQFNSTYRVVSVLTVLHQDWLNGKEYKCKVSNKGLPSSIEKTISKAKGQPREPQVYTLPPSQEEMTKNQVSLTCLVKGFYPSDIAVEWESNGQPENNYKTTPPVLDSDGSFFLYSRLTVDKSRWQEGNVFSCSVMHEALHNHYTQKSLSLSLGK
light: B1 light with S10Y, S12A, A43T
notes: as for B1
- IC50 (read off the curve) (human C1q [4]): ~0.2 µg/mL
- Relative IC50 (human C1q [2]): 0.65 ratio to chimeric M1

B9: humanized anti-C1q antibody VH3/Vκ2 (antibody, human IgG4)
heavy: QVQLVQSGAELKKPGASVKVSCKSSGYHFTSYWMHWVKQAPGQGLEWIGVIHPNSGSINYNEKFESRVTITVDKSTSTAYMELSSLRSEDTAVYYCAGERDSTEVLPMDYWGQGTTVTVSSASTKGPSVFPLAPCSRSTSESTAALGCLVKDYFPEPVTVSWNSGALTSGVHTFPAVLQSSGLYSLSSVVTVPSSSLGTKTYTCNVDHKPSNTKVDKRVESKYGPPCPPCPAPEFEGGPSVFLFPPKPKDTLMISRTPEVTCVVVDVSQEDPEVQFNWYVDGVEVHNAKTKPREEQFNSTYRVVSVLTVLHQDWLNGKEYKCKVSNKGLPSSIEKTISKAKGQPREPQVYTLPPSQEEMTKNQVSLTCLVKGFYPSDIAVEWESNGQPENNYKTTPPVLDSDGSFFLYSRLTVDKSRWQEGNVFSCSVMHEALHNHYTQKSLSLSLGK
light: B1 light
notes: as for B1
- IC50 (read off the curve) (human C1q [4]): ~0.3 µg/mL
- Relative IC50 (human C1q [2]): 0.82 ratio to chimeric M1

B10: humanized anti-C1q antibody VH3/Vκ3 (full-length IgG) (antibody)
heavy: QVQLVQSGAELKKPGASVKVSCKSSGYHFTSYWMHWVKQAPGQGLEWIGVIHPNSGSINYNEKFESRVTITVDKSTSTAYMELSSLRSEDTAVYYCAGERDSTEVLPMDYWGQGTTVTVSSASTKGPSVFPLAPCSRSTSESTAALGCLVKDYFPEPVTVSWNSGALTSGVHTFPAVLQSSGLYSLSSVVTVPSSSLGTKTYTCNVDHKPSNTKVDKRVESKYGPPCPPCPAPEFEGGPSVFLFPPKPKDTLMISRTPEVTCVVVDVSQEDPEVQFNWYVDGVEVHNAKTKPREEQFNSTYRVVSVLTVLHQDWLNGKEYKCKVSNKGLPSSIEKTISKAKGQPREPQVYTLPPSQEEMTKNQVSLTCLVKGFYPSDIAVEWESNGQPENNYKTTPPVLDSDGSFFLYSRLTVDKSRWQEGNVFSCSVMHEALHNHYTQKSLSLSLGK
light: B1 light with N44P
notes: Full-length human IgG4 (S241P L248E) / human kappa, expressed in NS0; also called IgG VH3/Vκ3; IgG-VH3/Vκ3; not shown: human kappa light chain constant region
- Kd (human C1q [5]): 22700 pM
- IC50 (read off the curve) (mouse C1q [6]): ~5 µg/mL
- koff (human C1q [7]): 1.1e-07 s⁻¹
- Kd (human C1q [8]): 7.9 pM
- koff (human C1q [8]): 3.1e-07 s⁻¹
- kon (human C1q [8]): 39000 M⁻¹ s⁻¹
- koff (human C1q [9]): 4.6e-06 s⁻¹
- IC50 (read off the curve) (human C1q [4]): ~0.2 µg/mL
- Kd (human C1q [10]): 5.8 pM
- koff (human C1q [10]): 5.8e-06 s⁻¹
- kon (human C1q [10]): 1e+06 M⁻¹ s⁻¹
- Kd (human C1q [11]): 6.7 pM
- koff (human C1q [11]): 6.4e-06 s⁻¹
- kon (human C1q [11]): 960000 M⁻¹ s⁻¹
- Kd (human C1q [12]): 7300 pM
- kon (human C1q [13]): 16000 M⁻¹ s⁻¹
- amount of antibody required to inhibit approximately 50% to approximately 80% of rat CH50 hemolysis (rat C1q): ~60 ng
- amount of antibody required to inhibit 50% of human CH50 hemolysis (human C1q [14]): ~60 ng
- Kd (human C1q [15]): 4.9 pM
- koff (human C1q [15]): 5.1e-06 s⁻¹
- kon (human C1q [15]): 1.1e+06 M⁻¹ s⁻¹
- kon (human C1q [16]): 200000 M⁻¹ s⁻¹
- Relative IC50 (mouse C1q [17]): 1.5 ratio to chimeric M1
- Relative IC50 (human C1q [2]): 0.63 ratio to chimeric M1

B11: humanized anti-C1q antibody VH3/Vκ4 (antibody, human IgG4)
heavy: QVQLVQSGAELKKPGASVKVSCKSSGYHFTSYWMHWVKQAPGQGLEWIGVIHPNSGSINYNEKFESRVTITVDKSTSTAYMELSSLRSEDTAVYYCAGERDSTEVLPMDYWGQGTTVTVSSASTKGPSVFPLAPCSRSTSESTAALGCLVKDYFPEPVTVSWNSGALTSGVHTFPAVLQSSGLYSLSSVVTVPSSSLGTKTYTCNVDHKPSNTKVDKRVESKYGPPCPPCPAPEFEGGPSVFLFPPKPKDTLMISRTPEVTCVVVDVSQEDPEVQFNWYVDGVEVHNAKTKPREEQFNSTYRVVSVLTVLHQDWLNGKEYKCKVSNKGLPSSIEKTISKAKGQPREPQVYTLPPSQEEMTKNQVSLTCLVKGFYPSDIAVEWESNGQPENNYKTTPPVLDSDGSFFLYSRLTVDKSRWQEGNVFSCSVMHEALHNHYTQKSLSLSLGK
light: B1 light with V2I, I4L, N44P
notes: Full-length human IgG4 (S241P L248E) / human kappa, expressed in NS0, Protein A purified; also called 3F1; not shown: human kappa light chain constant region
- IC50 (read off the curve) (mouse C1q [6]): ~6 µg/mL
- IC50 (read off the curve) (human C1q [4]): ~0.3 µg/mL
- amount of antibody required to inhibit approximately 50% to approximately 80% of rat CH50 hemolysis (rat C1q): ~60 ng
- Relative IC50 (mouse C1q [17]): 1.91 ratio to chimeric M1
- Relative IC50 (human C1q [2]): 0.83 ratio to chimeric M1

B12: humanized anti-C1q antibody VH4/Vκ1 (antibody, human IgG4)
heavy: not shown
light: B1 light with S10Y, S12A, A43T
notes: as for B1
- IC50 (read off the curve) (human C1q [18]): ~0.3 µg/mL
- Relative IC50 (human C1q [2]): 1.03 ratio to chimeric M1

B13: humanized anti-C1q antibody VH4/Vκ2 (antibody, human IgG4)
heavy: not shown
light: B1 light
notes: as for B1
- IC50 (read off the curve) (human C1q [18]): ~0.2 µg/mL
- Relative IC50 (human C1q [2]): 0.84 ratio to chimeric M1

B14: humanized anti-C1q antibody VH4/Vκ3 (antibody, human IgG4)
heavy: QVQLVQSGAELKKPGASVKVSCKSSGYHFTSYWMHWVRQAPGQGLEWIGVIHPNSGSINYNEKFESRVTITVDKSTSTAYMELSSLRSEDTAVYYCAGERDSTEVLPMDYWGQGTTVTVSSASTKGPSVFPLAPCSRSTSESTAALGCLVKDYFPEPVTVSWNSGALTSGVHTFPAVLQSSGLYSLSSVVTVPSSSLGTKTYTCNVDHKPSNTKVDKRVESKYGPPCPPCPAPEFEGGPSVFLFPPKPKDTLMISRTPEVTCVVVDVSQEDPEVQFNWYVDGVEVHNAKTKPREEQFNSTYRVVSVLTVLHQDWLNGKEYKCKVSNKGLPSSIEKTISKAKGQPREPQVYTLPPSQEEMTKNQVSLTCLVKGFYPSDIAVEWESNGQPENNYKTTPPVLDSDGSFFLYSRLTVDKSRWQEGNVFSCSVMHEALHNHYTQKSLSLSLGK
light: B1 light with N44P
notes: Full-length human IgG4 (S241P L248E) / human kappa, expressed in NS0, Protein A purified; also called 1D3; not shown: human kappa light chain constant region
- IC50 (read off the curve) (mouse C1q [6]): ~6 µg/mL
- amount of antibody required to inhibit approximately 50% to approximately 80% of rat CH50 hemolysis (rat C1q): ~60 ng
- amount of antibody required to inhibit 50% of human CH50 hemolysis (human C1q [14]): ~60 ng
- IC50 (read off the curve) (human C1q [18]): ~0.2 µg/mL
- Relative IC50 (mouse C1q [17]): 1.84 ratio to chimeric M1
- Relative IC50 (human C1q [2]): 0.77 ratio to chimeric M1

B15: humanized anti-C1q antibody VH4/Vκ4 (antibody, human IgG4)
heavy: not shown
light: B1 light with V2I, I4L, N44P
notes: as for B1
- IC50 (read off the curve) (human C1q [18]): ~0.2 µg/mL
- Relative IC50 (human C1q [2]): 0.92 ratio to chimeric M1

B16: humanized anti-C1q antibody VH1/Vκ1 (antibody, human IgG4)
heavy: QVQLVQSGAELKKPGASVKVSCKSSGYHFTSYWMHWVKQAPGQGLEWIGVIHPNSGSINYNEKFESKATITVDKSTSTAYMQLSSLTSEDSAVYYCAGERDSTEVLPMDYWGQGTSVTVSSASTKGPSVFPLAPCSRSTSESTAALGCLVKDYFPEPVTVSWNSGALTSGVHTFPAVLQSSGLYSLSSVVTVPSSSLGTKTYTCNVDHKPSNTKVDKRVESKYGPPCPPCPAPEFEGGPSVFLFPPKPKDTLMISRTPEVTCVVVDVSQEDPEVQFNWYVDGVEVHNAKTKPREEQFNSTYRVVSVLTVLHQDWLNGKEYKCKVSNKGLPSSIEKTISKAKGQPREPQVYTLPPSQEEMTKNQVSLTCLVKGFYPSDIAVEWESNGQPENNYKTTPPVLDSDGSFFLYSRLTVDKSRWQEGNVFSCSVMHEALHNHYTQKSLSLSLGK
light: B1 light with S10Y, S12A, A43T
notes: Full-length human IgG4 (S241P L248E) / human kappa, expressed in NS0, Protein A purified; also called 2B12; not shown: human kappa light chain constant region
- IC50 (read off the curve) (human C1q [3]): ~0.3 µg/mL
- IC50 (read off the curve) (mouse C1q [6]): ~5 µg/mL
- amount of antibody required to inhibit approximately 50% to approximately 80% of rat CH50 hemolysis (rat C1q): ~60 ng
- amount of antibody required to inhibit 50% of human CH50 hemolysis (human C1q [14]): ~60 ng
- Relative IC50 (mouse C1q [17]): 1.62 ratio to chimeric M1
- Relative IC50 (human C1q [2]): 0.9 ratio to chimeric M1
